Common to all, as to test: co-IP; anti-Flag M2 affinity gel on extracts of NIH3T3 cells transfected with 3xFlag Cyclin A2 alleles; endogenous partners detected by Western blot; densitometry (ImageQuantTL) normalised to immunoprecipitated Cyclin A2, percent of WT; repeated 5 times
What all share (conditions): partners not purified
A general note: Immunoblotting shows a protein as a band on a membrane.

Experiment [1] has as its target T1, Cyclin A2 E180A, C-terminally fused to 3 Flag tags (mouse, UniProt P51943 1-422, E180A).
T1 construct: Cyclin A2, mouse; cDNA obtained from NIH3T3 cells by RT-PCR; source: NIH3T3 cells, transfected, in cell extracts; not shown: 3xFlag, C-terminal, kept

Experiment [2] has as its target T2, Cyclin A2 L204A, C-terminally fused to 3 Flag tags (mouse, UniProt P51943 1-422, L204A).
T2 construct: Cyclin A2, mouse; cDNA obtained from NIH3T3 cells by RT-PCR; source: NIH3T3 or HEK 293 cells, transfected, in cell extracts; not shown: 3xFlag, C-terminal, kept

Experiment [3] addresses T3, Cyclin A2 K256A, C-terminally fused to 3 Flag tags (mouse, UniProt P51943 1-422, K256A).
T3 construct: Cyclin A2, mouse; cDNA obtained from NIH3T3 cells by RT-PCR; source: NIH3T3 cells, transfected, in cell extracts; not shown: 3xFlag, C-terminal, kept

Experiment [4] concerns the target T4, Cyclin A2 D171A, C-terminally fused to 3 Flag tags (mouse, UniProt P51943 1-422, D171A).
T4 construct: Cyclin A2, mouse; cDNA obtained from NIH3T3 cells by RT-PCR; source: NIH3T3 or HEK 293 cells, transfected, in cell extracts; not shown: 3xFlag, C-terminal, kept

Experiment [5] concerns the target T5, Cyclin A2 WT, C-terminally fused to 3 Flag tags (mouse, UniProt P51943 1-422).
T5 construct: Cyclin A2, mouse; cDNA obtained from NIH3T3 cells by RT-PCR; Same construct transfected into mouse NIH3T3 (assay a1) and human HEK 293 (assay a2); also called WT Cyclin A2 allele; Flag tagged WT Cyclin A2; source: NIH3T3 or HEK 293 cells, transfected, in cell extracts; not shown: 3xFlag, C-terminal, kept

The target in experiment [6] is T6, Cyclin A2 E285A, C-terminally fused to 3 Flag tags (mouse, UniProt P51943 1-422, E285A).
T6 construct: Cyclin A2, mouse; cDNA obtained from NIH3T3 cells by RT-PCR; source: NIH3T3 cells, transfected, in cell extracts; not shown: 3xFlag, C-terminal, kept
T6 sequence (P51943 whole entry E285A, the tested form may be a part): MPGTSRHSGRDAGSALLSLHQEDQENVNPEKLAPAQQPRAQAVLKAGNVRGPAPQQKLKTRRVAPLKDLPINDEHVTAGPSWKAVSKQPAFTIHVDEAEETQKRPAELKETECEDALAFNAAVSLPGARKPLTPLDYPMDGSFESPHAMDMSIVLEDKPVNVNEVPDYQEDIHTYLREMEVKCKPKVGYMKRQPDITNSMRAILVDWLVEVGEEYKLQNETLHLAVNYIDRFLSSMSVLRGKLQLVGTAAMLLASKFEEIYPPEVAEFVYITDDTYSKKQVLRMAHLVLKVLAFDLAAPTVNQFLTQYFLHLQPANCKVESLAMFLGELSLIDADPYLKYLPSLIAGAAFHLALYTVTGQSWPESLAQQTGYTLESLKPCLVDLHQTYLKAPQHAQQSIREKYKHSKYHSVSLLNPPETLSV

Experiment [7] concerns the target T7, Cyclin A2 E210Q, C-terminally fused to 3 Flag tags (mouse, UniProt P51943 1-422, E210Q).
T7 construct: Cyclin A2, mouse; cDNA obtained from NIH3T3 cells by RT-PCR; source: NIH3T3 cells, transfected, in cell extracts; not shown: 3xFlag, C-terminal, kept

The target of experiment [8] is T8, Cyclin A2 L282R, C-terminally fused to 3 Flag tags (mouse, UniProt P51943 1-422, L282R).
T8 construct: Cyclin A2, mouse; cDNA obtained from NIH3T3 cells by RT-PCR; source: NIH3T3 cells, transfected, in cell extracts; not shown: 3xFlag, C-terminal, kept
T8 sequence (P51943 whole entry L282R, the tested form may be a part): as the sequence (P51943 whole entry E285A, the tested form may be a part) above, with L282R, A285E counted along it

Experiment [9] concerns the target T9, Cyclin A2 M200A, C-terminally fused to 3 Flag tags (mouse, UniProt P51943 1-422, M200A).
T9 construct: Cyclin A2, mouse; cDNA obtained from NIH3T3 cells by RT-PCR; source: NIH3T3 or HEK 293 cells, transfected, in cell extracts; not shown: 3xFlag, C-terminal, kept

Experiment [10] has as its target T10, Cyclin A2 W207A, C-terminally fused to 3 Flag tags (mouse, UniProt P51943 1-422, W207A).
T10 construct: Cyclin A2, mouse; cDNA obtained from NIH3T3 cells by RT-PCR; source: NIH3T3 or HEK 293 cells, transfected, in cell extracts; not shown: 3xFlag, C-terminal, kept

Experiment [11] has as its target T11, Cyclin A2 Double (W207L, E210Q), C-terminally fused to 3 Flag tags (mouse, UniProt P51943 1-422, W207L | E210Q).
T11 construct: Cyclin A2, mouse; cDNA obtained from NIH3T3 cells by RT-PCR; also called Double mutant; source: NIH3T3 cells, transfected, in cell extracts; not shown: 3xFlag, C-terminal, kept

For experiment [12], the target named is T12, Cyclin A2 Triple (M200A, L204A, W207A), C-terminally fused to 3 Flag tags (mouse, UniProt P51943 1-422, M200A | L204A | W207A).
T12 construct: Cyclin A2, mouse; cDNA obtained from NIH3T3 cells by RT-PCR; also called Triple mutant; source: NIH3T3 or HEK 293 cells, transfected, in cell extracts; not shown: 3xFlag, C-terminal, kept
T12 sequence (P51943 whole entry M200A/L204A/W207A, the tested form may be a part): as the sequence (P51943 whole entry E285A, the tested form may be a part) above, with M200A, L204A, W207A, A285E counted along it

T7 sequence (P51943 whole entry E210Q, the tested form may be a part): as the sequence (P51943 whole entry E285A, the tested form may be a part) above, with E210Q, A285E counted along it
T4 sequence (P51943 whole entry D171A, the tested form may be a part): as the sequence (P51943 whole entry E285A, the tested form may be a part) above, with D171A, A285E counted along it
T9 sequence (P51943 whole entry M200A, the tested form may be a part): as the sequence (P51943 whole entry E285A, the tested form may be a part) above, with M200A, A285E counted along it
T5 sequence (P51943 whole entry, the tested form may be a part): as the sequence (P51943 whole entry E285A, the tested form may be a part) above, with A285E counted along it
T2 sequence (P51943 whole entry L204A, the tested form may be a part): as the sequence (P51943 whole entry E285A, the tested form may be a part) above, with L204A, A285E counted along it
T3 sequence (P51943 whole entry K256A, the tested form may be a part): as the sequence (P51943 whole entry E285A, the tested form may be a part) above, with K256A, A285E counted along it
T11 sequence (P51943 whole entry W207L/E210Q, the tested form may be a part): as the sequence (P51943 whole entry E285A, the tested form may be a part) above, with W207L, E210Q, A285E counted along it
T1 sequence (P51943 whole entry E180A, the tested form may be a part): as the sequence (P51943 whole entry E285A, the tested form may be a part) above, with E180A, A285E counted along it
T10 sequence (P51943 whole entry W207A, the tested form may be a part): as the sequence (P51943 whole entry E285A, the tested form may be a part) above, with W207A, A285E counted along it

B1: p107 (endogenous, NIH3T3) (natural protein, mouse (endogenous in NIH3T3), UniProt Q64701 1-1063, looked up)
chain: MFEDEPHAEGAAAVAAAREALQALCQELNLDEGSAAEALDDFTAIRGNYSLEGEVIHWLACSLYVACRKSIIPTVGKGVMEGNCVSLTRILRSAKLSLIQFFSKMKKWMDMSNLPQEFRERIERLERNFEVSTVIFKKFEPIFLDIFQNPYEEPPKLPRSRKQRRIPCSVKDLFNFCWTLFVYTKGNFRMIGDDLVNSYHLLLCCLDLIFANAIMCPNRRDLLNPSFKGLPSDFHAPDFKAAEEPPCIIAVLCDLHDGLLVEAKGIKEHYFKPYISKLFDKKILKGECLLDLSSFTDNSKAVNKEYEEYVLTVGDFDERIFLGADAEEEIGTPRKFTADTPFGKLTSQASVECNLQQHFEKKRSFAPSTPLTGRRYLQEKEAVTTPVASATQSVSRLQSIVAGLKSAPSEQLLNIFESCMRNPMGNIIKIVKGIGETFCQHYTQSTDKQPGSHIDFAVNRLKLAEILYYKILETIMVQETRRLHGMDMSVLLEQDIFHKSLMACCLEIVLFAYSSPRTFPWIIEVLDLQPFYFYKVIEVVIRSEEGLSRDMVKHLNSIEEQILESLAWTNNSALWEALHASANRVPSCEEVIFPNNFEIGNGGNVQGHLPMMPMSPIIHPRVKEVRTDSGSLRQDMQPLSPISVHERYSSPAAGSAKRRLFGDDPPKDTLMDKIMAEGTKLKIAPSSVTAESLSISPGQALLTMATTTVTGTTGRKVTVPLHGIANDAGEITLVPISMNPTQESTAESPVSLTAQSLIGTSPKQTHLTKAQDAHLTGVSKPKRTGSLALFYRKVYHLASVRLRDLCLKLDVSNELRRKIWTCFEFTLVHCPDLMKDRHLDQLLLCAFYIMAKVTKEERTFQEIMKSYRNQPQANSHVYRSVLLKSIPGGVVVYNGDCEMTDGDIEDATKTPNCSSEPVKEERGDLIKFYNTVYVGRVKSFALKYDLSNQDHIMDAPPLSPFPHIKQQPGSPRRISQQHSLYVSPHKNGAGLTPRSALLYKFNGSPSKSLKDINNMIRQGEQKTKKRVIAISGDADSPAKRLCQENDDVLLKRLQDVVSERANH
notes: p107, endogenous protein of mouse NIH3T3 cells, detected by Western blot; source: endogenous, NIH3T3 cell extract
For the molecule B1, the “percent co-precipitated relative to WT” value is 19.6% in experiment [1]; 65.6% in experiment [2]; 17% in experiment [3]; 100% in experiment [4]; 100% in experiment [5]; 8.6% in [6]. Also, the “percent co-precipitated relative to WT” value is 70% in experiment [7], 58.6% in experiment [8] and 79.2% in [9].

B2: p21 (endogenous, NIH3T3) (natural protein, mouse (endogenous in NIH3T3), UniProt P39689 1-159, looked up)
chain: MSNPGDVRPVPHRSKVCRCLFGPVDSEQLRRDCDALMAGCLQEARERWNFDFVTETPLEGNFVWERVRSLGLPKVYLSPGSRSRDDLGGDKRPSTSSALLQGPAPEDHVALSLSCTLVSERPEDSPGGPGTSQGRKRRQTSLTDFYHSKRRLVFCKRKP
notes: p21, endogenous protein of mouse NIH3T3 cells, detected by Western blot; source: endogenous, NIH3T3 cell extract
Take B2: the “percent co-precipitated relative to WT” value was found to be 11.7% in experiment [1]; 79.2% in [10]; 100% in [2]; 41.9% in experiment [3]; 100% in experiment [4]; 100% in experiment [5]. In addition, the “percent co-precipitated relative to WT” value turned out to be 78.2% in [6]; 60.2% in experiment [7]; 65.7% in experiment [8]; 8.2% in experiment [11]; 100% in [9].

B3: p27 (endogenous, NIH3T3) (natural protein, mouse (endogenous in NIH3T3), UniProt P46414 1-197, looked up)
chain: MSNVRVSNGSPSLERMDARQAEHPKPSACRNLFGPVNHEELTRDLEKHCRDMEEASQRKWNFDFQNHKPLEGRYEWQEVERGSLPEFYYRPPRPPKSACKVLAQESQDVSGSRQAVPLIGSQANSEDRHLVDQMPDSSDNPAGLAEQCPGMRKRPAAEDSSSQNKRANRTEENVSDGSPNAGTVEQTPKKPGLRRQT
notes: p27, endogenous protein of mouse NIH3T3 cells, detected by Western blot; source: endogenous, NIH3T3 cell extract
B3: the “percent co-precipitated relative to WT” value in experiment [2] came to 15.2%; in experiment [3] it was 19.3%; in experiment [4] it was 100%; in [5] it was 100%; in experiment [6] it was 36.7%; in experiment [7] it was 95.7%. For the same molecule, the results for the “percent co-precipitated relative to WT” value in [8] and in experiment [9] were 44.5% and 69.2%, respectively.

B4: CDK1 (endogenous, NIH3T3) (enzyme)
chain: not shown
notes: CDK1, endogenous protein of mouse NIH3T3 cells, detected by Western blot; source: endogenous, NIH3T3 cell extract
Consider B4, for which the “percent co-precipitated relative to WT” value in experiment [10] was found to be 15.3%; in experiment [2], 57.2%; in experiment [3], 3.8%; in experiment [4] it was 100%; in experiment [5], 100%; in [6], 4.7%. Moreover, the “percent co-precipitated relative to WT” value in experiment [7] stood at 45.3%; in experiment [12], 0.4%; in experiment [8], 19.8%; in experiment [11], 9.2%; in experiment [9], 72.8%.

For the origin of these results see PMC3145769, “Cyclin A2 Mutagenesis Analysis: A New Insight into CDK Activation and Cellular Localization Requirements” (PLoS ONE, 2011).
